What was measured:
[1] = target: C3(x)1 from methylamine treated C3 (peak 2 of the MonoS cation exchange column) (human) (UniProt P01024)
[2] = target: C3(x)2 from methylamine treated C3 (peak 3 of the MonoS cation exchange column) (human) (UniProt P01024)
C3b (human) = C3b (human) (UniProt P01024)

FB remaining after addition of FD (Wes immunoassay with a mAb to Bb), 1-120 min at 37°C in VB++: practically all at 1 min, 85% at 5 min, 60% at 15 min, 30–40% at 60–120 min [1]: 85% | FB remaining after addition of FD (Wes immunoassay with a mAb to Bb), 1-120 min at 37°C in VB++: all at 1–5 min, 90% at 15 min, 60% at 120 min [2]: 90% | FB remaining after addition of FD (Wes immunoassay with a mAb to Bb), 1-120 min at 37°C in VB++: 90% at 1 min, ca. 60% at 5 min, 25% at 15 min, almost all consumed at 30 min (C3b (human)): 90%
Substance: Factor B (natural protein)

From paper PMC7136553
